Assay results as given in PMC10527703 (Structure (London, England : 1993), 2023).

Target: the molecule itself
Experiment: ThT fluorescence aggregation + negative-stain TEM

Protein	binding result
KDNIQHVPGGGSVQIVYK (peptide, UniProt P10636-8 294-311, looked up) [R2R3_2Q]	binds
TENLQHQPGGGQVQIVYK (peptide, UniProt P10636-8 263-274, looked up) [R1R3_12Q]	binds
TENLQHQPGGGKVQIVYQ (peptide, UniProt P10636-8 263-274, looked up) [R1R3_13Q]	binds
TENLKHQPGGGQVQIVYQ (peptide, UniProt P10636-8 263-274, looked up) [R1R3_23Q]	binds
